The data set in a line: yeast display, Sf9 membrane polyspecificity reagent, FACS + sequencing; frameworks hold sequencing errors. An outline of the steps:
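In a synthetic yeast display library (Saccharomyces cerevisiae BJ5465), nanobody expression was induced with galactose for 36–48 hours. FACS gates were set low and high (top ~1%) using anti-HA fluorescence for expression and streptavidin fluorescence for binding of the Sf9 membrane reagent. Each polyreactivity label is drawn from the gate of origin.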
Consider “QVQLVESGGGLVQAGGSHRLSCAASGSTFLRYAMGWYRQAPGKERELVAAITASGGSTYYADSVKGRFTISRDNAKNTVYLQMNCLKAEDTAVYYCAADGRFIGKNSHDLWIYGYYYWGQGTQVTVSS”, for which the “polyreactivity (PSR sort gate)” value is “low polyreactivity”.

With “QVQLVESGGGLVQAGGSHRLSCAASGSTFQYYAMGWYRQAPGKERELVAAISKSGGITYYADSVKGRFTISRDYAKYTVYLQMNILKPEDTAVYYCNAYSASGYDYWGQGSQVTVSS”, the “polyreactivity (PSR sort gate)” value was “high polyreactivity”.

As for “QVQLVESGGGLVQAGGSHRLSCAASGSTFTTNAMGWYRQAPGKERELVAAISRRGGSTYYADSVKGRFTISRDNAKNTVYLQMNSLKPEDTAVYYCNAVRAEYEFDYWGQGTQVTVSS”, the “polyreactivity (PSR sort gate)” value is on record as “high polyreactivity”.

Consider “QVQLVESGGGLVQAGGSHRLSCAASGSTFYRYAMGWYRQAPGKEREFVAAISTRGGSTHYADSVKGRFTISRDNAKNTVYLQMNSLKPEDTAVYYCNARGYYSVPSNTGIRYYRFDYWGQGTQVTLSS”, for which the “polyreactivity (PSR sort gate)” value is reported as “low polyreactivity”.

For “QVQLVESGGGLVQAGGSHRLSCAASGYTFPLYAMGWYRQAPGKERELVADINIGGASTYYADSVKGRFTISRDNAKNTVYLQMNSLKPEDTAVYYCAKEYYDGYFPTFDYDYWGQGTQVTVSS”, the “polyreactivity (PSR sort gate)” value is listed as “low polyreactivity”.

Consider “QVQLVESGGGLVQAGGSHRLSCAATGLTFAYYDMGWYRQAPGKERELVAAITSGGTTNYADSVKGRFTISRDNAKNTVYLQMNSLKPEDTAVYYCNADYYSRIVGVRIYDYWGQGTQVTVSS”, for which the “polyreactivity (PSR sort gate)” value is listed as “low polyreactivity”.

For the sequence “QVQLVESGGGLVQAGGSHRLSCPASGLTFYSNAMGWYRQSPGKERELVASISYRGGITYYADSLKGRFTISRDNAKNTVYLQMNSLKPEDTAVYYGAAGRKGSMYYWGQGTQVTVSS”, the “polyreactivity (PSR sort gate)” value is “high polyreactivity”.

In the case of “QVQLVESGGGLVQAGGSHRLSCSASGRIFARNVMGWYRQAPGKERELVAAITYSGGRTYYADSVKGRFTISRDNAKNTVYLQMNSLKPEDTAVYYCNAKSFSPPGYRGFDYWGQGTQVTVSS”, the “polyreactivity (PSR sort gate)” value was “low polyreactivity”.

“QVQLVESGGGLVQAGGSHRLSFAASGSIFWRNAMGWYRQAPGKERELVAVISGGSTYADSVKGRFTISRDNAKNTVYLKMNSLKPEDTAVYFCNADLYVSSYPKGYDYWGQGTQVTVSS”: the “polyreactivity (PSR sort gate)” value is recorded as “low polyreactivity”.

Consider “QVQLVESGGGLVQAGGSHRLSSAASGSTFAYHHMGWYRQAPGKEREFVADIRSGGNTNYADSVKGRFTISRDNAKKTVYLLMNSLNPEDTAVYYCATDGYRIDVYHPDYRYDYWGQGSQVTVSS”, for which the “polyreactivity (PSR sort gate)” value was “low polyreactivity”.

As for “QVQLVESGGGLVQAGGSIRISCAASGSIFIIYAMGWYRQATGKEWELVAGIRGRCGSTYYADSVKGRFTISRDNAKNTVYLQMNSLKPEDTAVYYCDASVYRGYNYWGQGTQVTVSW”, the “polyreactivity (PSR sort gate)” value is recorded as “high polyreactivity”.

“QVQLVESGGGLVQAGGSIRLSCAASGFISYYYAMGWYRQAPGKERELVAAITKSGGSTYYADSVKGRFTISRDNAKNTVYLQMNSLKPEDTAVDYCAAVRSTRNSTSRLYGYWGQGTQVNVSS”: the “polyreactivity (PSR sort gate)” value is on record as “low polyreactivity”.

“QVQLVESGGGLVQAGGSIRLSCAASGFTFDQYAMGWYRQAPGKERELVAAISSGTRTYYADSVKGRFTISRDNAKNTVYLQMNSLKPEDTAVYYCIARSVRYRDLYDYWGQGTQVTVSS”: the “polyreactivity (PSR sort gate)” value is “low polyreactivity”.

Take “QVQLVESGGGLVQAGGSIRLSCAASGITFRPNAMGWYRQAPGKERELVAAISSGDGTYADSVKGRFTISRDNAKNTVYLQMNSLKPEDTAVYYCNATGQSYVTSEYDYWGQGTQVTVSS”: the “polyreactivity (PSR sort gate)” value is recorded as “low polyreactivity”.

As for “QVQLVESGGGLVQAGGSIRLSCAASGRIFHLYAMGWYRQAPGKERELVAAISRGGDTYYADSVKGRFTISRDNAKNTVYLQMYSLKPEDTAVYYCAAGRWVYTVGYYPVGYYYWGQGTQVTVSS”, the “polyreactivity (PSR sort gate)” value was “high polyreactivity”.

“QVQLVESGGGLVQAGGSIRLSCAASGRIFKGYAMGSYRQAPGKERELVAAISSRGGITYYADSVKGRFTISRDNAKNSVYLEMNSLNPEDTAVYYCAAVYKWSRYGGYKYWGQGTQVTVSS”: the “polyreactivity (PSR sort gate)” value was “low polyreactivity”.

On to “QVQLVESGGGLVQAGGSIRLSCAASGRIFQYYAMGWYRQAPGKERELVAAISRSGGRTRYADSVKGRFTISRDNAKNTVYLQMNSLKPEDTAVYYCAASYGYDSTSLYDYWGQGTQVTVSS”, for which the “polyreactivity (PSR sort gate)” value is “high polyreactivity”.

With “QVQLVESGGGLVQAGGSIRLSCAASGRTFHYNVMGGYRQAPGNERELVAAITNTGGSTYYADSVKGRFTISRDNAKNTVYLQMYSLKPVDTAVYYCAAVIWGRRYGAYPYEYWGQGTQVTVSS”, the “polyreactivity (PSR sort gate)” value is reported as “low polyreactivity”.

As for “QVQLVESGGGLVQAGGSIRLSCAASGSIFGAYAMGWYRQAPGKERELVATITLRDGSTYYADSVKGRFTSSRDNAKNTVYLQMNSLKPEDTAVYYCATYYSAINYGWSKTILYDYWGQGTQVTVSS”, the “polyreactivity (PSR sort gate)” value was “low polyreactivity”.

For the sequence “QVQLVESGGGLVQAGGSIRLSCAASGSIFRIYVMGWYRQAPGQERELVAAINSGGRTKYADSVKARFTISRDNAKNTVYLQMNSLKPEDTAVYYCAAAFQYRKGVSSLYASWGQGTQVTLSS”, the “polyreactivity (PSR sort gate)” value is reported as “high polyreactivity”.

“QVQLVESGGGLVQAGGSIRLSCAASGSTFGGNAMGWYRQAPGKERELVAAITGTGGRTFYADSVKGRFTISRDNAKNTVYLQMNSLKPEDTAVYFCAADSYIYSVNYWGQGTQVTVSS”: the “polyreactivity (PSR sort gate)” value was “low polyreactivity”.

With “QVQLVESGGGLVQAGGSIRLSCAASGSTFRVYAMGWYRQAPGKERELVAAISSSGGITYYADSVKGRFTISRDNAKNTVYLQMNSLKPEDTAVYYCAKGTVIHVLYDYWGQGTQVTVSS”, the “polyreactivity (PSR sort gate)” value is recorded as “low polyreactivity”.

For the sequence “QVQLVESGGGLVQAGGSIRLSCAASGSTFYAYAMGWYRQAPGKERELVAAIDTGGSTYYADSVKGRFTISRDNAKNTVYLQMNSLKPEDTAVYYCNAVVDTTEYPYEYDYWGQGTQVTVSS”, the “polyreactivity (PSR sort gate)” value is given as “low polyreactivity”.

As to “QVQLVESGGGLVQAGGSIRLSCAASVFTFRANGMGWYRKAPGKERELVATITSGGTTNYADSVKGRFTISRDNAKNTVYLQMNSLIPEDTAVYYCNAGSVSDRQMDYWGQGTQGTVSS”, the “polyreactivity (PSR sort gate)” value was “low polyreactivity”.

Take “QVQLVESGGGLVQAGGSIRLSCAPSGSPNVTYDMGWYRQAPGKESELVASISRGGSTKYADSVKGRFTISRDNAKNTVFLQMNSLKPEDTAVFYGAAKAKNYRLGPYDYWGQGTQVTVSS”: the “polyreactivity (PSR sort gate)” value is listed as “low polyreactivity”.

Regarding “QVQLVESGGGLVQAGGSIRLSCSASGRIFNRNAMGWYRKAPGKERELVAAISSDTSTNYADSVKGRFTISRDNAKNNVYLQMNSLKPEDTAVYYCNADGYYDMDYWGQGTQVTVSS”, the “polyreactivity (PSR sort gate)” value was “low polyreactivity”.

“QVQLVESGGGLVQAGGSIRLTCAASGLIIGVYAKGWYRQAPGKERELVAAITDGGSTYYADSVKGRFTISRDNEQNTVSLQMNSVKPEDTAVYYCAREQGVNRNHDYWGQGTQVTVSS”: the “polyreactivity (PSR sort gate)” value is on record as “low polyreactivity”.

Take “QVQLVESGGGLVQAGGSLGLSCAASGFIVGYYTMGWDRQAPGKERELVAAISSSGGRTYDADSVKGRFTISRDKAKNTVYFQMNSLKPEDTAVYYCNADRTLRFGYGYCGQGTQVTVSS”: the “polyreactivity (PSR sort gate)” value was “low polyreactivity”.

As to “QVQLVESGGGLVQAGGSLGLSCAASGIIFGTYGMGWYRQAPGKERELVAAITTRGSSTYYADSVKGRFTISRDNAKNSVYLQMNSLKPEDTAVYYCAAVSVRRNRMDSWGQGTQVTVSS”, the “polyreactivity (PSR sort gate)” value is recorded as “high polyreactivity”.

On to “QVQLVESGGGLVQAGGSLGLSCAASGLIFQAYAMGWYRQAPGKERELVAAINWSGDSTYYADSVKGRFTISRDNAKYTVYLQMNSLKPEDTAVYYCAARYRRAKYGYWGQGTQVTVSS”, for which the “polyreactivity (PSR sort gate)” value was “high polyreactivity”.

In the case of “QVQLVESGGGLVQAGGSLGLSCAASGLTFTHYTMGWYRQAPGKERELVAGISQTGGSTYYADSVKGRFTISRDNAKNTVYLQMNSLKPEDTAVYYCSRVFPRPRTGYYYWGQGTQVTVSS”, the “polyreactivity (PSR sort gate)” value is “high polyreactivity”.

Regarding “QVQLVESGGGLVQAGGSLGLSCAASGNMFGRYAMGWYRQAPGKEREYVATITYSGGSTYYADSVKGPFTISRDNAKNTVYLQMNSLKQEDTAVYYCAARVGRPTLVAAKYDYWGQGTQVTVSS”, the “polyreactivity (PSR sort gate)” value is “high polyreactivity”.

Regarding “QVQLVESGGGLVQAGGSLGLSCAASGRTFFDYAMGWYRQAPGKERELVAAINWSGGRTYYADSVKGRFSISRDNAKNTVYLQMNSLKPEDTAVYDCNVYTRGRYEYWGQGTQVTVSS”, the “polyreactivity (PSR sort gate)” value is listed as “low polyreactivity”.

With “QVQLVESGGGLVQAGGSLGLSCAASGRTFGPYAMGWYRQAPGKERELVAAISASGASTSYADSVKGRFTIARDNAKNTVYLQMNSLKPEDTAVYYCARSYYHRPFGYWGQGTQVTVSS”, the “polyreactivity (PSR sort gate)” value is on record as “low polyreactivity”.

With “QVQLVESGGGLVQAGGSLGLSCAASGRTFGRYVMGWYRLAPGTEWELVAAIRSSGGGTYYADSVKGRFTISRDNAKNTVYLQMNSLKPEETAVYYCAKEYSIGIRWEYDYWGQGTQVTVSS”, the “polyreactivity (PSR sort gate)” value is “low polyreactivity”.

As to “QVQLVESGGGLVQAGGSLGLSCAASGSTLYGNAMGWYRQAPGKERELVAAINTGGSTNYADSVKGRFTISRDNAKNTVYVQMNSLKPEDTAVYYCAADYEWDATHDYWGQGTQVTVSS”, the “polyreactivity (PSR sort gate)” value was “low polyreactivity”.

With “QVQLVESGGGLVQAGGSLGLSCAAYGSTFRYYAMGWYRQAPGKERELVAAISSAGNTYYADSVKGRFTISRDNAKNTVYLQMNSLKPEDTAVYYCAAKYSYYTYAGDGGLFSCSYGYWGQGTQVTVSS”, the “polyreactivity (PSR sort gate)” value is on record as “low polyreactivity”.

“QVQLVESGGGLVQAGGSLLISCAASGRIFYYNTMGWSRQEPGKESELVAAITTNGGSTYYADSVKGRFTISRDNAKITVYLQMNSLNPEDTAVYYCNRDRYPYYSAYNYWGQGTQVTVSS”: the “polyreactivity (PSR sort gate)” value was “low polyreactivity”.

For “QVQLVESGGGLVQAGGSLLLICAASGFIFVPYAMGWYRQAPGKEREFVATITWRGDSTYYADSVKGRFTISRDNAKNTVYLQMNSLKPEDTAVYYCAVYPIRLWAYDYWGQGTQVTVSS”, the “polyreactivity (PSR sort gate)” value is reported as “low polyreactivity”.

“QVQLVESGGGLVQAGGSLLLICAASGSILGTNAMGWYRQAPGKERELVAAISSSGRTSYADSVKGRFTISRDNAKNTVSLQMNSLKPEDTAVYYCNASNYIVLIIDPDAAPWLYDYWGQGTQVTVSS”: the “polyreactivity (PSR sort gate)” value is “low polyreactivity”.

As for “QVQLVESGGGLVQAGGSLLLICSASGSTFVRHAMGWYRHAPGKESELDAAISTRGGSTSYADSVKGRFTISRDNSKNSVYLQMKSLKQEDTAVYYCAKVLAYSQGIRHGYWGQGTQVTVSS”, the “polyreactivity (PSR sort gate)” value is recorded as “low polyreactivity”.

The values above are taken from the nanobody polyreactivity screen of Harvey et al. (2022).
